Non-standard residues stand in square brackets, D forms with d. NMeF = CN[C@@H](Cc1ccccc1)C(=O)O; NMeV = CN[C@H](C(=O)O)C(C)C; Nle = CCCC[C@H](N)C(=O)O
Target: T1, fIAPP (Homo sapiens, UniProt P10997)
T1 construct: made in house; host or cells: chemical synthesis (Fmoc-SPPS), air-oxidised, RP-HPLC purified
T1 sequence (P10997 34-70 limits assumed): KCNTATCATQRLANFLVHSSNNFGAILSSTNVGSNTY
Assay: Dot blot binding of Fluos-peptides to fIAPP
Details: Fluos-peptides 0.2 μM
Description: After blocking (5% milk in TBS-T, 2 h, RT) and several washing steps (with TBS-T and ThT buffer), membranes were incubated with N-terminal fluorescein-labeled ACMs (Fluos-ACMs) at 0.2 μM for IAPP-related membranes or 2 μM for Aβ42-related membranes; incubation was overnight (10° C.) in ThT buffer (containing 1% HFIP). To control for fibril autofluorescence, similar membranes were incubated in parallel with buffer only. Bound peptides were visualized using a LAS-400 mini instrument (Fujifilm) equipped with a suitable fluorescence filter.

QKL(N-Me)VF(N-Me)FAED - Val-Gly-Ser - NKGAIIGLNleVGGVV (H-QKL[NMeV]F[NMeF]AEDVGSNKGAIIGL[Nle]VGGVV-OH; SMILES CCCC[C@H](NC(=O)[C@H](CC(C)C)NC(=O)CNC(=O)[C@@H](NC(=O)[C@@H](NC(=O)[C@H](C)NC(=O)CNC(=O)[C@H](CCCCN)NC(=O)[C@H](CC(N)=O)NC(=O)[C@H](CO)NC(=O)CNC(=O)[C@@H](NC(=O)[C@H](CC(=O)O)NC(=O)[C@H](CCC(=O)O)NC(=O)[C@H](C)NC(=O)[C@H](Cc1ccccc1)N(C)C(=O)[C@H](Cc1ccccc1)NC(=O)[C@H](C(C)C)N(C)C(=O)[C@H](CC(C)C)NC(=O)[C@H](CCCCN)NC(=O)[C@@H](N)CCC(N)=O)C(C)C)[C@@H](C)CC)[C@@H](C)CC)C(=O)N[C@H](C(=O)NCC(=O)NCC(=O)N[C@H](C(=O)N[C@H](C(=O)O)C(C)C)C(C)C)C(C)C) [VGS-VF]
Binding to fIAPP (dot blot): bind fIAPP

From patent publication US20250161408A1, “PEPTIDIC INHIBITORS OF AMYLOID SELF- AND CROSS-ASSEMBLY” (TECHNISCHE UNIVERSITÄT MÜNCHEN, priority 2022, published 2025)
